Results from the DeepSol protein solubility set.

assay: soluble on expression in E. coli; label from the status in PepcDB or PDB records

| Sequence | soluble on expression in E. coli |
| --- | --- |
| MSLSTMLVAEDLSAVGGISLSSALPVLTAMQYDVAALPTSLLSTHTSGYGTPAVVDLSTWLPQVFAHWTRAQLHFDQALIGYVGSVALCQQITTYLEQQTLSLLVVDPVLGDLGQLYQGFDQDYVAAMRQLIQQADVILPNTTEAALLTGAPYQVTPDLEVILPALQAQLKTGAHAVITDVQRADQIGCAWLDEAGHVQYCGARRLPGHYNGTGDTLAAVIAGLLGRGYPLAPTLARANQWLNMAVAETIAQNRTDDRQGEGHHHHHH | not soluble |
| MGSDKIHHHHHHMFENEILFDNGQHKFMFLGWEEKEEEIVQTNQYLILDGNEGILLDPGGAHVFPRVMSNVAEVVDLSSIRHIFYTHQDPDVTSGILLWLSICENAKIYISSLWVRFLPHFGIYDQKRIVPISDKGTKIKLLSGNELEILPAHFLHSTGNFVLYDPVAKILFSGDIGAAVFEKGKRYRYVDDFERHLPLMEAFHKRYMSSNAACKKWVDMVSKKKIDMIAPQHGAVFRGESVKKFLEWFRNLKCGVDLIDNLYSL | not soluble |
| AHHHHHHMVHITLDRNTANSWLIISKDRRQVRMGDTHQNVSDNKERFSNYPMVLGAQRFSSGKMYWEVDVTQKEAWDLGVCRDSVQRKGQFSLSPENGFWTIWLWQDSYEAGTSPQTTLHIQVPPCQIGIFVDYEAGVVSFYNITDHGSLIYTFSECVFAGPLRPFFNVGFNYSGGNAAPLKLCPLKM | soluble |
| MNKVWLTGLLTATASGVFSASTLAATEITWWHAMGGQLGETVNQLATDFNASQSDYKLTPVYKGSYTETLTAGIAAFRAGQAPNILQVFDAGAATIMSSKGVAKPVQDLMIESGYPFTAQDYIAGVRNFYADNTGKMVGMPFNSSTPVLYYNKDMLASVNAQAPQTYEQLEQVAAKLAEKGQAGFAQSLTPWIMFENFKSRHNLPLSDKQNGYQDLSTKIMFNSDDMLMHVKKLKEWSDKGYYKYYGSDWDANQTPFERGEVAMWMGSSGSFGGLRNRVKFNLGTTYLPYWESVTKNPTHTFIGGAALFALQGHTPAQDKGVAAFFAYLTKPETQMNWHKTTGYVPVTNAAYDLTKQSGYYQENPDAEVGVKQLSLPDGEWTKGYRLGYYPQVREVMHREFDNIFSGRSTVESSLNKVEDESAKLLNRFARTVQ | not soluble |
| MSEGWNIAVLGATGAVGEALLETLAERQFPVGEIYALARNESAGEQLRFGGKTITVQDAAEFDWTQAQLAFFVAGKEATAAWVEEATNSGCLVIDSSGLFALEPDVPLVVPEVNPFVLTDYRNRNVIAVPDSLTSQLLAALKPLIDQGGLSRISVTSLISASAQGKKAVDALAGQSAKLLNGIPIDEEDFFGRQLAFNMLPLLPDSEGSVREERRIVDEVRKILQDEGLMISASVVQAPVFYGHAQMVNFEALRPLAAEEARDAFVQGEDIVLSEENEFPTQVGDASGTPHLSVGCVRNDYGMPEQVQFWSVADNVRFGGALMAVKIAEKLVQEYLY | soluble |
| MSELFKKLMDQIEMPLEMKNSRVFSSADIVEVKVYPESRIWDFRFSFETILPIDFYQELRSRLVTSFETADIKAVFDIEVENAEFSNELLQAYYQEAFKQPTCNSASFKSSFSHLTVSYTDGKVLISAPQFVNNDHFRKNHLPNLEKQFEAFGF | not soluble |
| MAHHHHHHMATLTEDEIAPSAIAAERERLQEATQHVAELERRLDALQRELEAACTRREQLLLSVQWRELMAAVNADEDVYAVAERMMDAFAAFRESLVEPENYLQEQREEVLKEDDIVPYSDTDDYADFSGVEAVVEELLAAVKEQLESHAAAPPSSFRQTKHSSLRGSFASDERPKHPDGESAEAHKVSADARRQALLKLLVITVLMGRVEQYCRFKSISDASNVPQSEAEEMRDGVASVWQWLFHEQPGVLTAEEGAEWKHIAGAFLGDSYTVAP | not soluble |
| AIAITGETEPACVEDASQLAEQRNGAPVMEAGCAAVPVEANATKRGYWRQRTLHSWFIGRKPQRTCIAVDIDEVLAFFVPELCAFHNKRYGTRLQATDFHSYRFAEVWGGTDTDAIRKVHEFFRTPAFQELQPIPGAKQVLQSRLARFRFVVVTSRQLVIEQETRAWLDKHFSGIFEAIYLGNQWALHPNGEHGTGVGSAAQEPQRLFANRRRKSQVCKACGAAVLIDDLPHNLLDCSENGVFGVLFDFQGQYGWSKSPAFESKDIAVVHSWEAVGELLDRL | soluble |
| MGSDKIHHHHHHMMSLSNERLIHDPLEWDALVARYGLDCYYEYAYFKLAQEPEAVPEMYVHPSEFGILIYPYLKRRISGTPLQDLTTPYGYGGPVFVGLWSSDQIKDIRRHFLEYCQAERIVSETIRFHPLLENDELGRSWCETTTVLQQTVTVALSEPFEAIESQFSSMTRRNIRKAVREDVTVRVAGQEEYAKFIRLYRLTMDKHQADARYYFTDHYFRQFHDGRLPAELLVAEREGKIIAGCIVLYGQQFAHYHLGASDPAELSARPNHLLFAEMIRRAKALGKTALHLGGGTTRNEDDSLLAYKRSFSNRQTSFTLGTSVLHPLLYRQLSEQHFAHNVLSSQDWFPAYRTPVRQLSPRGEQSS | not soluble |
| MGHHHHHHSHMHGWTWSVPKFMKRMKVPDYKDKAVFGVPLIVHVQRTGQPLPQSIQQALRYLRSNCLDQVGLFRKSGVKSRIHALRQMNENFPENVNYEDQSAYDVADMVKQFFRDLPEPLFTNKLSETFLHIYQYVSKEQRLQAVQAAILLLADENREVLQTLLCFLNDVVNLVEENQMTPMNLAVCLAPSLFHLNLL | not soluble |
| MAFADIVRSVENRTNAATLNWSIKNGWKPEVTGFSGYGSGRRVRVLARVLMSNPENLLVDAPSQSITQQAQRGWRQFFTIQVPNLPVTVTVGGKTVTSSTNDNGYVDLLVEDHNLDPGWHTIQIQAEGSTPAEARVLIVENTARIGLISDIDDTIMVTWLPRALLAAWNSWVLHTKTRKPVPGMNRFYEELLKDHPDAPVFYLSTGAWNTFETLQEFINKHALPDGPMLLTDWGPTPTGLFRSGQEHKKVQLRNLFIEYPDMKWILVGDDGQHDPLIYGEAVEEHPNRIAGVAIRELSPGEHVLSHGTTASLSTITTNGGQGVPVVHGRDGYELLQRYETKPFALEHHHHHH | soluble |
| MAHHHHHHMLSHSSQLCSLWIESARVIRLDHCRCPGRLVSTGLGVSSEIRKTNLNGKSYTLDPVEMEPVFGVNRASDFSEKGGLCSTNETNEKNVLLSGGDIVSRNQKEVDKVERVALVAEKEHEEEEPLARNLHNTIGPTPYRVSWYDYGSVSPSKRFTYWAYRRLKELPTDWQEYYRRMLYQEISAARYVNQTWDCFMMVVDGYRKAKWILKKYGISIDESLIPKPYNNFWEETTHEERVWAHRRSHQMKELQALYRDEDELVFGAHTMDRREVSHGSIKNVQTGMQGGTPVHALDLPAPCESEIKTSPQIEDMSSALMSSIEDDKLWNPVLRSRIHTRRSREEVELYSFEDDEEDENSPS | soluble |
| MGLKEKLIRKGKYIWELPKETIEGQRVPVILYLSDALFELLEEDALRQAANAATLPGVEKAIYVMPDVHVGYGFPVGGVMATNTETGIISPGSIGYDINCGVRLIATNLKAVDVAPRIKEIMNNMLKNVPAGVGSTSEIKLSKSQMKEVLVKGAGWAVEHGFGFPEDLQHIEGFGALPNADPEKASHEAYERGSDELGTVGSGNHFVEVQAVEQIYEPEIAEKLGIWEGQVMVMVHSGSRGFGHQVCTDYLRVALKVRDKYKIKLPDPQLACMPFNSPEGQAYFKAMNAAANYAFANRQILGFKAANTVRKTLGISWEEFGYRLIYDHAHNIGKVEKHEVDGKKVEVIVHRKGATRAFPPYNPEVPPAYREVGQPVIIPGDMGRASFLLVGQTNSMKMSFGTACHGAGRVMSRRQAKKYVKEVGLEKVIGNLVVVARGKGTIMEEIPQAYKDVTEVVRVIDELGIAKAVARLKPLGTLKG | soluble |
| MYQKKDRACRIRRKQCKLFGDWQKSVITQLKTIQDKNISIHKAFGCMIRLAANLFYAHSKIIHFMSEEAGEDAQRKAAEREAKKAEVRKRLEEAGNKKKAKKGFLTPERKKKLRKLLMVKAAEDLKRQQLLKEQERQKALADRTISLPNVDSIDDKGQLEKIYNDLWARLTQLEEEKYDINYVVSQTEAEINSLTIEVNDLRGKFVKPSLKKVSKYDNKFKKSGESKAGTKEDFRANLKIVKKDVMEAIVNVKKKDDKPDWSKKNKDAKAEDSAPAAVAPEAEPVAEEAEAEPEAEEEEGEEEEEE | not soluble |
